B1: human monoclonal antibody CRJB (antibody, V domains shown)
VH: QITLKETGPTLVKPTQTLTLTCTFSGFSLSTSGVGVGWIRQPPGKALEWVTLIYWDDDKRYSPSLENRVTIRKDTSKNQVALTMTNMDPLDTGTYYCAHRQHISSFPWFDSWGQGTLVTVSS
VL: SYVLTQPPSVSVAPGKTARINCGGNNIEYRSVHWYQQKSGQAPVAVIYDNSDRPSGIPERFSGSKSGNTATLTISRVEAGDEADYYCQVWDISSDVVFGGGTKLTVLG
B2: human monoclonal antibody CRJA (antibody, V domains shown)
VH: EVQLLESGGGLVQPGGSLRLSCAASGFTFSNYAMSWVRQAPGKGLEWVSAISASGHSTYLADSVKGRFTISRDNSKNTLYLQMNSLRAEDTAVYYCAKDREVTMIVVLNGGFDYWGQGTRVTVSS
VL: EIVLTQSPATLSLSPGERATLACRASQTASRYLAWYQQKPGQAPRLLIYDTSNRATGIPARFSGSGSGTDFTLSISSLEPEDFAVYYCQQRFNWPWTFGQGTKVEFK

How the values were obtained:
Assay in all cases: PEPSCAN ELISA, looped 15-mer, 10 ug/ml
[1] = target: looped peptide … (rabies virus strain ERA)
[2] = target: looped peptide … (rabies virus strain ERA); remark: listed apart in the source
[3] = target: looped peptide … (rabies virus strain ERA); remark: listed apart in the source
[4] = target: looped peptide […] (rabies virus strain ERA)
[5] = target: looped peptide … (rabies virus strain ERA); remark: listed apart in the source
[6] = target: looped peptide … (rabies virus strain ERA); remark: listed apart in the source
[7] = target: looped peptide […] (rabies virus strain ERA); remark: listed apart in the source
[8] = target: looped peptide […] (rabies virus strain ERA); remark: listed apart in the source
[9] = target: looped peptide … (rabies virus strain ERA); remark: listed apart in the source
[10] = target: looped peptide … (rabies virus strain ERA); remark: listed apart in the source
[11] = target: looped peptide […] (rabies virus strain ERA); remark: listed apart in the source
[12] = target: looped peptide […] (rabies virus strain ERA); remark: listed apart in the source
[13] = target: looped peptide … (rabies virus strain ERA); remark: listed apart in the source
[14] = target: looped peptide … (rabies virus strain ERA); remark: listed apart in the source
[15] = target: looped peptide […] (rabies virus strain ERA); remark: listed apart in the source

Binder	OD value [1]	OD value [2]	OD value [3]	OD value [4]	OD value [5]	OD value [6]	OD value [7]	OD value [8]	OD value [9]	OD value [10]	OD value [11]	OD value [12]	OD value [13]	OD value [14]	OD value [15]
B1	79	79	72	206	92	60	132	156	76	74	186	71	63	68	87
B2	–	54	90	164	71	50	93	152	87	–	123	468	79	82	320
